The record followed here is patent US20180339042A1 (published 2018).

For this experiment, the target named is T1, human GITR, membrane bound (human, UniProt Q9Y5U5 26-241).
T1 sequence: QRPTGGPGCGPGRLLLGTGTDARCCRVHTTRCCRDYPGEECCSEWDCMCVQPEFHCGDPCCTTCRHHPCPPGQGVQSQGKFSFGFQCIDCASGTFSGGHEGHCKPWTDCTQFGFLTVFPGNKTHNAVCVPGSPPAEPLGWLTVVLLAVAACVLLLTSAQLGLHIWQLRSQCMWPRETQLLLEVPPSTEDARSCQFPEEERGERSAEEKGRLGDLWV
The experiment in a line: cell-based or functional assay.

B1: 28F3 (antibody, human IgG2, kappa)
heavy: QVQLVESGGGVVQPGRSLRLSCAASGFTFSSYGMHWVRQAPGKGLEWVAVIWYEGSNKYYADSVKGRFTISRDNSKNTLYLQMNSLRAEDTAVYYCARGGSMVRGDYYYGMDVWGQGTTVTVSSASTKGPSVFPLAPCSRSTSESTAALGCLVKDYFPEPVTVSWNSGALTSGVHTFPAVLQSSGLYSLSSVVTVPSSNFGTQTYTCNVDHKPSNTKVDKTVERKCCVECPPCPAPPVAGPSVFLFPPKPKDTLMISRTPEVTCVVVDVSHEDPEVQFNWYVDGVEVHNAKTKPREEQFNSTFRVVSVLTVVHQDWLNGKEYKCKVSNKGLPAPIEKTISKTKGQPREPQVYTLPPSREEMTKNQVSLTCLVKGFYPSDIAVEWESNGQPENNYKTTPPMLDSDGSFFLYSKLTVDKSRWQQGNVFSCSVMHEALHNHYTQKSLSLSPGK
light: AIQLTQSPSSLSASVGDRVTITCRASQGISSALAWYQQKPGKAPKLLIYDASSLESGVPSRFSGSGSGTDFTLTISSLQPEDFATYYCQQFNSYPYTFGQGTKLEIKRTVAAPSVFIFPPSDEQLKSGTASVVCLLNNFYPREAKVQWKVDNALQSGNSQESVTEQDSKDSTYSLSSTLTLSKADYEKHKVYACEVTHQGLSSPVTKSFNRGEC
Regarding B1, the “NFKB signaling (phospho-p65), CD4+ T cells, Emax (%)” value was determined as 69% and the “NFKB signaling (phospho-p65), CD8+ T cells, Emax (%)” value was 85%.
